Values of other authors in publication PMC5113071.
Where two headings read alike, the source gives them in different places. Each block holds one substance with its values, some of them ahead of it.

How the values were obtained:
NRP1 (Homo sapiens) [1] = molecular target: NRP1 (Homo sapiens) (UniProt O14786)
[2] = molecular target: alpha-2-macroglobulin (Homo sapiens) (UniProt P01023)
VEGFR1 (Homo sapiens) = VEGFR1 (Homo sapiens) (UniProt P17948)
VEGFR2 (Homo sapiens) = VEGFR2 (Homo sapiens) (UniProt P35968)
Sequence of UniProt P35968 (P35968 20-1356): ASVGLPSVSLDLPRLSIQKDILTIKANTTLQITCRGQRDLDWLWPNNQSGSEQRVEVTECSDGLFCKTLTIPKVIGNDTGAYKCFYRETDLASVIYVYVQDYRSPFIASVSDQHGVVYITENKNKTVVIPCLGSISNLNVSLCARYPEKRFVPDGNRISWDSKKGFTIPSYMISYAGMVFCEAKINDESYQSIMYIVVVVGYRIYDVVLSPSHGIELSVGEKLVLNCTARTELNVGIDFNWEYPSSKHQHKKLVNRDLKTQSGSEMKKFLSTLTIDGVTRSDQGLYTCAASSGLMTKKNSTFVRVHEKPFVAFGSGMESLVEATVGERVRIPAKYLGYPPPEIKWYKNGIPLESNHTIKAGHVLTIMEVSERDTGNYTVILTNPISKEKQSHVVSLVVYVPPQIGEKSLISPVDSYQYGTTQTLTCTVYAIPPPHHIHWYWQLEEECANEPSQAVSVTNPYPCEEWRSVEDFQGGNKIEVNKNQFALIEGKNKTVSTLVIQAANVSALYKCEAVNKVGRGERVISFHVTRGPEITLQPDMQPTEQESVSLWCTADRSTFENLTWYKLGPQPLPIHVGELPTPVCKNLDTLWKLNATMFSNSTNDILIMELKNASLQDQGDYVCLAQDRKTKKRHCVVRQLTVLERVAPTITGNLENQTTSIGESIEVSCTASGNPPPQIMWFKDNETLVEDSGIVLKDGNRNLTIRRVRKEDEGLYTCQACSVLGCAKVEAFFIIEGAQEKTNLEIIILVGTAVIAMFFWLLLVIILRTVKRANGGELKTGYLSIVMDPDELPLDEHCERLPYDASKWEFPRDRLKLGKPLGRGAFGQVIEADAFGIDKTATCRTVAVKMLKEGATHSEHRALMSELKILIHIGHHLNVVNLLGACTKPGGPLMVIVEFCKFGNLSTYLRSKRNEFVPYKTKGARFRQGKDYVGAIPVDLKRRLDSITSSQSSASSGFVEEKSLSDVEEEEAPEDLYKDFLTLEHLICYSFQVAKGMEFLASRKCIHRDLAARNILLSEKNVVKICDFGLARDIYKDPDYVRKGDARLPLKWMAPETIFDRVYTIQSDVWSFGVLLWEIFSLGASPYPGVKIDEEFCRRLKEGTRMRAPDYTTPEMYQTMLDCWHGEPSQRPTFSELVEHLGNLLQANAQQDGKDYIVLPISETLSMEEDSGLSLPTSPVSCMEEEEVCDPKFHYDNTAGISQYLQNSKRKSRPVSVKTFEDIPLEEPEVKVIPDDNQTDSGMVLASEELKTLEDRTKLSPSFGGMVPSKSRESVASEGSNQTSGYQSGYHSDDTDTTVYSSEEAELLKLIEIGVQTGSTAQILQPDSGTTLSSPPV

[3] = molecular target: alpha-2-macroglobulin fast form (Homo sapiens) (UniProt P01023)
NRP1 (Homo sapiens) [4] = molecular target: NRP1 (Homo sapiens) (UniProt O14786); remark: listed apart in the source

Kd (NRP1 (Homo sapiens) [1]): 0.312 nM
Substance: VEGF165a and VEGF121 (from UniProt P15692)

Kd [2]: 4000 nM | Kd (VEGFR1 (Homo sapiens)): 0.033 nM | Kd (VEGFR2 (Homo sapiens)): 0.1 nM | Kd [3]: 420 nM
Substance: VEGF165a, VEGF165b and VEGF121 (from UniProt P15692)

Kd (NRP1 (Homo sapiens) [4]): 1.8 nM
Substance: sVEGFR1 (from UniProt P17948)
